Earlier results on 16 molecules are cited in patent publication US9394339B2, “Stabilized formulations of peptides and proteins protecting against non-enzymatic degradation” (Lyotropic Therapeutics, Inc., priority 2007, dated 2016).

B1: Lithostathine (1LIT): human protein (protein, UniProt P05451 23-166, looked up)
Lithostathine-1-alpha: QEAQTELPQARISCPEGTNAYRSYCYYFNEDRETWVDADLYCQNMNSGNLVSVLTQAEGAFVASLIKESGTDDFNVWIGLHDPKKNRRWHWSSGSLVSYKSWGIGAPSSVNPGYCVSLTSSTGFQKWKDVPCEDKFSFVCKFKN
B2: Electron transfer flavoprotein (1EFV): human protein (protein, UniProt P13804 20-333; P38117 2-255, looked up)
Electron transfer … 1: QSTLVIAEHANDSLAPITLNTITAATRLGGEVSCLVAGTKCDKVAQDLCKVAGIAKVLVAQHDVYKGLLPEELTPLILATQKQFNYTHICAGASAFGKNLLPRVAAKLEVAPISDIIAIKSPDTFVRTIYAGNALCTVKCDEKVKVFSVRGTSFDAAATSGGSASSEKASSTSPVEISEWLDQKLTKSDRPELTGAKVVVSGGRGLKSGENFKLLYDLADQLHAAVGASRAAVDAGFVPNDMQVGQTGKIVAPELYIAVGISGAIQHLAGMKDSKTIVAINKDPEAPIFQVADYGIVADLFKVVPEMTEILKKK
Electron transfer … 2: AELRVLVAVKRVIDYAVKIRVKPDRTGVVTDGVKHSMNPFCEIAVEEAVRLKEKKLVKEVIAVSCGPAQCQETIRTALAMGADRGIHVEVPPAEAERLGPLQVARVLAKLAEKEKVDLVLLGKQAIDDDCNQTGQMTAGFLDWPQGTFASQVTLEGDKLKVEREIDGGLETLRLKLPAVVTADLRLNEPRYATLPNIMKAKKKKIEVIKPGDLGVDLTSKLSVISVEDPPQRTAGVKVETTEDLVAKLKEIGRI
B3: Phenylalanine hydroxylase (1DMW): human protein (protein, UniProt P00439 1-452, looked up)
Phenylalanine-4-hydroxylase: MSTAVLENPGLGRKLSDFGQETSYIEDNCNQNGAISLIFSLKEEVGALAKVLRLFEENDVNLTHIESRPSRLKKDEYEFFTHLDKRSLPALTNIIKILRHDIGATVHELSRDKKKDTVPWFPRTIQELDRFANQILSYGAELDADHPGFKDPVYRARRKQFADIAYNYRHGQPIPRVEYMEEEKKTWGTVFKTLKSLYKTHACYEYNHIFPLLEKYCGFHEDNIPQLEDVSQFLQTCTGFRLRPVAGLLSSRDFLGGLAFRVFHCTQYIRHGSKPMYTPEPDICHELLGHVPLFSDRSFAQFSQEIGLASLGAPDEYIEKLATIYWFTVEFGLCKQGDSIKAYGAGLLSSFGELQYCLSEKPKLLPLELEKTAIQNYTVTEFQPLYYVAESFNDAKEKVRNFAATIPRPFSVRYDPYTQRIEVLDNTQQLKILADSINSEIGILCSALQKIK
B4: O6-alkylguanine-DNA alkyltransferase (1EH6): human protein (protein, UniProt P16455 1-207, looked up)
Methylated-DNA--protein-cystei …: MDKDCEMKRTTLDSPLGKLELSGCEQGLHEIKLLGKGTSAADAVEVPAPAAVLGGPEPLMQCTAWLNAYFHQPEAIEEFPVPALHHPVFQQESFTRQVLWKLLKVVKFGEVISYQQLAALAGNPKAARAVGGAMRGNPVPILIPCHRVVCSSGAVGNYSGGLAVKEWLLAHEGHRLGKPGLGGSSGLAGAWLKGAGATSGSPPAGRN
B5: Procarboxypeptidase A2 (1AYE): human protein (protein, UniProt P48052 19-419, looked up)
pro-form: LETFVGDQVLEIVPSNEEQIKNLLQLEAQEHLQLDFWKSPTTPGETAHVRVPFVNVQAVKVFLESQGIAYSIMIEDVQVLLDKENEEMLFNRRRERSGNFNFGAYHTLEEISQEMDNLVAEHPGLVSKVNIGSSFENRPMNVLKFSTGGDKPAIWLDAGIHAREWVTQATALWTANKIVSDYGKDPSITSILDALDIFLLPVTNPDGYVFSQTKNRMWRKTRSKVSGSLCVGVDPNRNWDAGFGGPGASSNPCSDSYHGPSANSEVEVKSIVDFIKSHGKVKAFITLHSYSQLLMFPYGYKCTKLDDFDELSEVAQKAAQSLRSLHGTKYKVGPICSVIYQASGGSIDWSYDYGIKYSFAFELRDTGRYGFLLPARQILPTAEETWLGLKAIMEHVRDHPY
modifications: pro-form
B6: Ribonuclease 4 (1RNF): human protein (protein, UniProt P34096 29-147, looked up)
Ribonuclease 4: QDGMYQRFLRQHVHPEETGGSDRYCNLMMQRRKMTLYHCKRFNTFIHEDIWNIRSICSTTNIQCKNGKMNCHEGVVKVTDCRDTGSSRAPNCRYRAIASTRRVVIACEGNPQVPVHFDG
B7: Eosinophil cationic protein (1QMT): human protein (protein, UniProt P12724 28-160, looked up)
Eosinophil cationic protein: RPPQFTRAQWFAIQHISLNPPRCTIAMRAINNYRWRCKNQNTFLRTTFANVVNVCGNQSIRCPHNRTLNNCHRSRFRVPLLHCDLINPGAQNISNCTYADRPGRRFYVVACDNRDPRDSPRYPVVPVHLDTTI
B8: Neutrophil (gelatinase) (1DFV): human protein (protein, UniProt P80188 21-198, looked up)
Neutrophil …: QDSTSDLIPAPPLSKVPLQQNFQDNQFQGKWYVVGLAGNAILREDKDPQKMYATIYELKEDKSYNVTSVLFRKKKCDYWIRTFVPGCQPGEFTLGNIKSYPGLTSYLVRVVSTNYNQHAMVFFKKVSQNREYFKITLYGRTKELTSELKENFIRFSKSLGLPENHIVFPVPIDQCIDG
B9: Thioltransferase (1JHB): human protein (protein, UniProt P35754 2-106, looked up)
Glutaredoxin-1: AQEFVNCKIQPGKVVVFIKPTCPYCRRAQEILSQLPIKQGLLEFVDITATNHTNEIQDYLQQLTGARTVPRVFIGKDCIGGCSDLVSLQQSGELLTRLKQIGALQ
B10: Thymidylate synthase (1HW3): human protein (protein, UniProt P04818 2-313, looked up)
Thymidylate synthase: PVAGSELPRRPLPPAAQERDAEPRPPHGELQYLGQIQHILRCGVRKDDRTGTGTLSVFGMQARYSLRDEFPLLTTKRVFWKGVLEELLWFIKGSTNAKELSSKGVKIWDANGSRDFLDSLGFSTREEGDLGPVYGFQWRHFGAEYRDMESDYSGQGVDQLQRVIDTIKTNPDDRRIIMCAWNPRDLPLMALPPCHALCQFYVVNSELSCQLYQRSGDMGLGVPFNIASYALLTYMIAHITGLKPGDFIHTLGDAHIYLNHIEPLKIQLQREPRPFPKLRILRKVEKIDDFKAEDFQIEGYNPHPTIKMEMAV
B11: Phosphatidylethanolamine binding protein (1BD9): human protein (protein, UniProt P30086 2-187, looked up)
Phosphatidylethanolamine-bindi …: PVDLSKWSGPLSLQEVDEQPQHPLHVTYAGAAVDELGKVLTPTQVKNRPTSISWDGLDSGKLYTLVLTDPDAPSRKDPKYREWHHFLVVNMKGNDISSGTVLSDYVGSGPPKGTGLHRYVWLVYEQDRPLKCDEPILSNRSGDHRGKFKVASFRKKYELRAPVAGTCYQAEWDDYVPKLYEQLSGK
B12: -Lactalbumin (1B9O): human protein (protein, UniProt P00709 20-142, looked up)
Alpha-lactalbumin: KQFTKCELSQLLKDIDGYGGIALPELICTMFHTSGYDTQAIVENNESTEYGLFQISNKLWCKSSQVPQSRNICDISCDKFLDDDITDDIMCAKKILDIKGIDYWLAHKALCTEKLEQWLCEKL
B13: Quinone reductase type 2 (1QR2): human protein (protein, UniProt P16083 1-231, looked up)
Ribosyldihydronicotinamide …: MAGKKVLIVYAHQEPKSFNGSLKNVAVDELSRQGCTVTVSDLYAMNLEPRATDKDITGTLSNPEVFNYGVETHEAYKQRSLASDITDEQKKVREADLVIFQFPLYWFSVPAILKGWMDRVLCQGFAFDIPGFYDSGLLQGKLALLSVTTGGTAEMYTKTGVNGDSRYFLWPLQHGTLHFCGFKVLAPQISFAPEIASEEERKGMVAAWSQRLQTIWKEEPIPCTAHWHFGQ
B14: Uroporphyrinogen decarboxylase (1URO): human protein (protein, UniProt P06132 1-367, looked up)
Uroporphyrinogen decarboxylase: MEANGLGPQGFPELKNDTFLRAAWGEETDYTPVWCMRQAGRYLPEFRETRAAQDFFSTCRSPEACCELTLQPLRRFPLDAAIIFSDILVVPQALGMEVTMVPGKGPSFPEPLREEQDLERLRDPEVVASELGYVFQAITLTRQRLAGRVPLIGFAGAPWTLMTYMVEGGGSSTMAQAKRWLYQRPQASHQLLRILTDALVPYLVGQVVAGAQALQLFESHAGHLGPQLFNKFALPYIRDVAKQVKARLREAGLAPVPMIIFAKDGHFALEELAQAGYEVVGLDWTVAPKKARECVGKTVTLQGNLDPCALYASEEEIGQLVKQMLDDFGPHRYIANLGHGLYPDMDPEHVGAFVDAVHKHSRLLRQN
B15: Ribonuclease inhibitor (1A4Y): human protein (protein, UniProt P13489 2-461, looked up)
Ribonuclease inhibitor: SLDIQSLDIQCEELSDARWAELLPLLQQCQVVRLDDCGLTEARCKDISSALRVNPALAELNLRSNELGDVGVHCVLQGLQTPSCKIQKLSLQNCCLTGAGCGVLSSTLRTLPTLQELHLSDNLLGDAGLQLLCEGLLDPQCRLEKLQLEYCSLSAASCEPLASVLRAKPDFKELTVSNNDINEAGVRVLCQGLKDSPCQLEALKLESCGVTSDNCRDLCGIVASKASLRELALGSNKLGDVGMAELCPGLLHPSSRLRTLWIWECGITAKGCGDLCRVLRAKESLKELSLAGNELGDEGARLLCETLLEPGCQLESLWVKSCSFTAACCSHFSSVLAQNRFLLELQISNNRLEDAGVRELCQGLGQPGSVLRVLWLADCDVSDSSCSSLAATLLANHSLRELDLSNNCLGDAGILQLVESVRQPGCLLEQLVLYDIYWSEEMEDRLQALEKDKPSLRVIS
B16: Glucosamine-6-phosphate deaminase isomerase (1D9T): human protein (protein, UniProt P46926 1-289, looked up)
Glucosamine-6-phosphate …: MKLIILEHYSQASEWAAKYIRNRIIQFNPGPEKYFTLGLPTGSTPLGCYKKLIEYYKNGDLSFKYVKTFNMDEYVGLPRDHPESYHSFMWNNFFKHIDIHPENTHILDGNAVDLQAECDAFEEKIKAAGGIELFVGGIGPDGHIAFNEPGSSLVSRTRVKTLAMDTILANARFFDGELTKVPTMALTVGVGTVMDAREVMILITGAHKAFALYKAIEEGVNHMWTVSAFQQHPRTVFVCDEDATLELKVKTVKYFKGLMLVHNKLVDPLYSIKEKETEKSQSSKKPYSD

The conditions of the first data set: aqueous solution, pH 7.4, 37° C., Tris-HCl buffer.
Regarding B1, the “T1/10 (time to 10% degradation by deamidation)” value is on record as 74 days.

For the molecule B2, the “T1/10 (time to 10% degradation by deamidation)” value is 29 days.

With B3, the “T1/10 (time to 10% degradation by deamidation)” value was 33 days.

For B4, the “T1/10 (time to 10% degradation by deamidation)” value is recorded as 46 days.

Regarding B5, the “T1/10 (time to 10% degradation by deamidation)” value is on record as 23 days.

Turning to B6, the “T1/10 (time to 10% degradation by deamidation)” value is given as 20 days.

For B7, the “T1/10 (time to 10% degradation by deamidation)” value is recorded as 65 days.

Regarding B8, the “T1/10 (time to 10% degradation by deamidation)” value is on record as 44 days.

As to B9, the “T1/10 (time to 10% degradation by deamidation)” value is listed as 71 days.

B10: the “T1/10 (time to 10% degradation by deamidation)” value is given as 0.41 days.

In the case of B11, the “T1/10 (time to 10% degradation by deamidation)” value was 100 days.

In the case of B12, the “T1/10 (time to 10% degradation by deamidation)” value is 20 days.

B13: the “T1/10 (time to 10% degradation by deamidation)” value is 50 days.

As to B14, the “T1/10 (time to 10% degradation by deamidation)” value is listed as 0.15 days.

On to B15, for which the “T1/10 (time to 10% degradation by deamidation)” value is given as 68 days.

Still in this data set, the particulars now being: buffer, pH 7.4.
Turning to B16, the “T1/2 (half-life, deamidation)” value is 320 days.

The same data set, now with this note: pH 7.4.
Regarding B16, the “T1/10 (time to 10% degradation by deamidation)” value is 49 days.

The data set is the same for the next values; noted with them: pH 7.4, 37° C., […] Tris.HCl buffer.
On to B14, for which the “time to lose 10% potency” value is on record as “about 3.6 hours”.
